Reference: publication PMC9224634, “Noninvasive Mapping of Angiotensin Converting Enzyme-2 in Pigeons Using Micro Positron Emission Tomography” (Life, 2022)

How the values were obtained:
ACE2 [1] = molecular target: ACE2; set-up: method as in earlier work; settings: ACE2-specific peptide inhibitor; ref 10 (Huang et al.); cited from earlier work
ACE2 [2] = molecular target: ACE2; set-up: method as in PMID 34174177; settings: cited from earlier work
ACE2 [3] = experiment: in vivo; settings: female, iv, 15 MBq
Method: Injection route: Chloral hydrate 10% was used for intramuscular anesthesia.
Micro PET/CT imaging: Four healthy pigeons (female) were injected with 15 MBq ^68Ga-HZ20 through the pterygoid vein, and then dynamic imaging was performed for 40 min to observe the dynamic distribution of the probe in the body. The images were acquired for 30 min, 40 min and 60 min, with a single PET scan time of 600 s. The Avator software was used to display the images, outline the region of interest for the main organs, record the maximum standard uptake values for the outlined areas, and calculate the dynamic changes in SUVmax for different organs. At the end of the 60 min imaging, the pigeons were euthanized and the main organs were obtained for in vitro imaging.

Row | Compound | Ki (ACE2 [1]) [nM] | Kd (ACE2 [2]) [nM] | SUV at 40 min (ACE2 [3]; SUVmax heart, final) [SUV] | SUV at 0 h (ACE2 [3]; SUVmax heart, initial) [SUV] | SUV at 20 min (ACE2 [3]; SUVmax kidney) [SUV] | SUV at 20 min (ACE2 [3]; SUVmax lung) [SUV] | SUV at 1 h (ACE2 [3]; kidney uptake (SUV)) [SUV] | SUV at 1 h (ACE2 [3]; liver uptake (SUV)) [SUV] | SUV at 40 min (ACE2 [3]; liver uptake (SUVmax)) [SUV] | SUV (ACE2 [3]; liver uptake (SUVmax), initial) [SUV] | SUV at 1 h (ACE2 [3]; lung uptake (SUV)) [SUV] | SUV at 1 h (ACE2 [3]; stomach uptake (SUV)) [SUV] | SUV at 40 min (ACE2 [3]; stomach uptake (SUVmax), peak) [SUV]
1 | Ac-GDYSHCSPLRYYPWWKCTYPDPEGGG-NH2 (disulfide) [DX600] | 2.8 | 98.7 |  |  |  |  |  |  |  |  |  |  | 
2 | CC(C)C[C@@H]1NC(=O)[C@@H]2CCCN2C(=O)[C@H](CO)NC(=O)[C@@H](NC(=O)[C@H](Cc2c[nH]cn2)NC(=O)[C@H](CO)NC(=O)[C@H](Cc2ccc(O)cc2)NC(=O)[C@H](CC(=O)O)NC(=O)CNC(=O)CN2CCN(CC(=O)O)CCN(CC(=O)O)CCN(CC(=O)O)CC2)CSSC[C@@H](C(=O)N[C@H](C(=O)N[C@@H](Cc2ccc(O)cc2)C(=O)N2CCC[C@H]2C(=O)N[C@@H](CC(=O)O)C(=O)N2CCC[C@H]2C(=O)N[C@@H](CCC(=O)O)C(=O)NCC(=O)NCC(=O)NCC(N)=O)[C@@H](C)O)NC(=O)[C@H](CCCCN)NC(=O)[C@H](Cc2c[nH]c3ccccc23)NC(=O)[C@H](Cc2c[nH]c3ccccc23)NC(=O)[C@@H]2CCCN2C(=O)[C@H](Cc2ccc(O)cc2)NC(=O)[C@H](Cc2ccc(O)cc2)NC(=O)[C@H](CCCNC(=N)N)NC1=O [68Ga-HZ20, metal not drawn] |  |  | 0.84 | 3.08 | 6.95 | 1.11 | 3.05 | 0.51 | 2.51 | 0.91 | 0.41 | 0.52 | 0.63
